# Measured values as given in US20100216715A1 (Novo Nordisk, published 2010).
# Numbering of substitutions follows the chain as printed. Names and notes keep the numbering of the source.
# T1: human beta-Klotho (human, UniProt Q86Z14 1-1044)
# T1 sequence (looked up): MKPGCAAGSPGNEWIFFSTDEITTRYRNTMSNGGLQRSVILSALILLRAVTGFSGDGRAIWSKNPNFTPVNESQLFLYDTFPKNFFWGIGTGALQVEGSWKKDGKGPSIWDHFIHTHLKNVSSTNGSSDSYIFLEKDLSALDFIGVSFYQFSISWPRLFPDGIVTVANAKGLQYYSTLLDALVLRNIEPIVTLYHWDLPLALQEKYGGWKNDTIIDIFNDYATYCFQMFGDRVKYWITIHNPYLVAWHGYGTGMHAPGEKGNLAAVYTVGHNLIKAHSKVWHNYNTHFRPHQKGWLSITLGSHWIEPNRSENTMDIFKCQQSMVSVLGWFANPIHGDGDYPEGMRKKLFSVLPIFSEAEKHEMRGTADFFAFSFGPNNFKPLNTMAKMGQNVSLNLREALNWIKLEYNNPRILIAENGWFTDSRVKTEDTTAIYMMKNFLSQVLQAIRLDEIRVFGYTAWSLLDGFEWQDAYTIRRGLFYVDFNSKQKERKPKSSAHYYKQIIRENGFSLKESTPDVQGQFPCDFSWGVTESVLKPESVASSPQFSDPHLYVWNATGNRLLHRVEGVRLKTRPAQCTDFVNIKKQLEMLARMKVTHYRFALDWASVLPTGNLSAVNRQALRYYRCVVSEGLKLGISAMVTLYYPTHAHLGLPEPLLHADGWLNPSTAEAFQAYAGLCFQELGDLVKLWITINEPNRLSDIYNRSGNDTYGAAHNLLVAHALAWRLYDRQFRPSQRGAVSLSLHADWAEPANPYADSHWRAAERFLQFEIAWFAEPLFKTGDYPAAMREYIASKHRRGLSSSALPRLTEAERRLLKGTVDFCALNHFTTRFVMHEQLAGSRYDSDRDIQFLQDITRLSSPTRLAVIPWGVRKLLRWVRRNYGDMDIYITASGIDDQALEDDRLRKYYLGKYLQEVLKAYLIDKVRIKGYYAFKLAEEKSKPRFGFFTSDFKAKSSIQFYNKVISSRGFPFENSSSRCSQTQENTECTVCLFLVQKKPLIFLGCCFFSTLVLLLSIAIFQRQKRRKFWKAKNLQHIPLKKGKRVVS
# B1: (Q15F, K56R, K59R, K69R, D102T, N121Q, K122R, Y179F, A180E, S181R) Gly-FGF21 (ligand)
# chain: GHPIPDSSPLLQFGGFVRQRYLYTDDAQQTEAHLEIREDGTVGGAADQSPESLLQLRALRPGVIQILGVRTSRFLCQRPDGALYGSLHFDPEACSFRELLLETGYNVYQSEAHGLPLHLPGQRSPHRDPAPRGPARFLPLPGLPPALPEPPGILAPQPPDVGSSDPLSMVGPSQGRSPSFER
# B2: (K56R, K59R, K69R, K122R) FGF21 (ligand)
# chain: HPIPDSSPLLQFGGQVRQRYLYTDDAQQTEAHLEIREDGTVGGAADQSPESLLQLRALRPGVIQILGVRTSRFLCQRPDGALYGSLHFDPEACSFRELLLEDGYNVYQSEAHGLPLHLPGNRSPHRDPAPRGPARFLPLPGLPPALPEPPGILAPQPPDVGSSDPLSMVGPSQGRSPSYAS
# B3: (K56R, K59R, K69R, N121Q, K122R, L166F, S167G, M168L, 169aT, P171L, S172E, Q173A, G174V, Y179F, A180E, S181R) FGF21 (ligand)
# chain: HPIPDSSPLLQFGGQVRQRYLYTDDAQQTEAHLEIREDGTVGGAADQSPESLLQLRALRPGVIQILGVRTSRFLCQRPDGALYGSLHFDPEACSFRELLLEDGYNVYQSEAHGLPLHLPGQRSPHRDPAPRGPARFLPLPGLPPALPEPPGILAPQPPDVGSSDPFGLVTGLEAVRSPSFER
# B4: (M168S) Ser-FGF21 (ligand)
# chain: SHPIPDSSPLLQFGGQVRQRYLYTDDAQQTEAHLEIREDGTVGGAADQSPESLLQLKALKPGVIQILGVKTSRFLCQRPDGALYGSLHFDPEACSFRELLLEDGYNVYQSEAHGLPLHLPGNKSPHRDPAPRGPARFLPLPGLPPALPEPPGILAPQPPDVGSSDPLSSVGPSQGRSPSYAS
# B5: Gly-FGF21 (ligand)
# chain: B4 chain with S1G, S169M
# B6: Gly-FGF21-M168L (ligand)
# chain: B4 chain with S1G, S169L
# B7: (L166F, S167G, M168L, 169aT, P171L, S172E, Q173A, G174V, Y179F, A180E, S181K) Ser-FGF21 (ligand)
# chain: SHPIPDSSPLLQFGGQVRQRYLYTDDAQQTEAHLEIREDGTVGGAADQSPESLLQLKALKPGVIQILGVKTSRFLCQRPDGALYGSLHFDPEACSFRELLLEDGYNVYQSEAHGLPLHLPGNKSPHRDPAPRGPARFLPLPGLPPALPEPPGILAPQPPDVGSSDPFGLVTGLEAVRSPSFEK
# B8: (K56R, K59R, K69R, K122R, L166F, S167G, M168L, 169aT, P171L, S172E, Q173A, G174V, Y179F, A180E, S181R) Ser-FGF21 (ligand)
# chain: B7 chain with K57R, K60R, K70R, K123R, K183R
# B9: (-1A, 71C, 121Q, 166F, 167G, 168L, 169aT, 171L, 172E, 173A, 174V, 179F, 180E, 181K) FGF21 derivative of Example 17 (ligand)
# chain: B7 chain with S1A, S72C, N122Q
# modifications: S-71-({2-[2-(2-{2-[2-(2-{2-[(S)-4-carboxy-4-(17-carboxy-heptadecanoylamino)-butyrylamino]-ethoxy}-ethoxy)-acetylamino]-ethoxy}-ethoxy)-acetylamino]-ethylcarbamoyl}-methyl) on the thiol of Cys71
# B10: (S71C, L166F, S167G, M168L, 169aT, P171L, S172E, Q173A, G174V, Y179F, A180E, S181K) Ser-FGF21 (ligand)
# chain: B7 chain with S72C
# B11: (-1S, 71C, 166F, 167G, 168L, 169aT, 171L, 172E, 173A, 174V, 179F, 180E, 181K) FGF21 derivative of Example 18 (ligand)
# chain: B7 chain with S72C
# modifications: S-71-({2-[2-(2-{2-[2-(2-{2-[(S)-4-carboxy-4-(17-carboxy-heptadecanoylamino)-butyrylamino]-ethoxy}-ethoxy)-acetylamino]-ethoxy}-ethoxy)-acetyl-amino]-ethylcarbamoyl}-methyl) on the thiol of Cys71
# B12: (K56R, 59R, 69R, 122R, 166F, 167G, 168L, 169aT, 171L, 172E, 173A, 174V, 179F, 180E, 181R) Ser-FGF21 derivative of Example 50 (ligand)
# chain: B7 chain with K57R, K60R, K70R, K123R, K183R
# modifications: N-alpha-1-[2-(2-{2-[2-(2-{2-[(S)-4carboxy-4-(17-carboxy-heptadecanoylamino)-butyrylamino]-ethoxy}-ethoxy)-acetylamino]-ethoxy}-ethoxy)-acetyl] on the N-terminal alpha amino group
# B13: (K56R, K59R, K69R, D102E, N121Q, K122R, M168L) GSGSG-FGF21 (ligand)
# chain: GSGSGHPIPDSSPLLQFGGQVRQRYLYTDDAQQTEAHLEIREDGTVGGAADQSPESLLQLRALRPGVIQILGVRTSRFLCQRPDGALYGSLHFDPEACSFRELLLEEGYNVYQSEAHGLPLHLPGQRSPHRDPAPRGPARFLPLPGLPPALPEPPGILAPQPPDVGSSDPLSLVGPSQGRSPSYAS
# B14: [-5G, -4S, -3G, -2S, -1G, K56R, 59R, 69R, 102E, 121Q, 122R, 168L] FGF21 derivative of Example 52 (ligand)
# chain: B13 chain
# modifications: N-alpha-1-[2-(2-{2-[2-(2-{2-[(S)-4-carboxy-4-(17-carboxy-heptadecanoylamino)-butyrylamino]-ethoxy}-ethoxy)-acetylamino]-ethoxy}-ethoxy)-acetyl] on the N-terminal alpha amino group
# B15: (-5G, -4S, -3G, -2S, -1G, K56R, 59R, 69R, 102E, 121Q, 122R, 168L) FGF21 derivative of Example 55 (ligand)
# chain: B13 chain
# modifications: N-alpha-1-[4-(16-1H-tetrazol-5-yl-hexadecanoylsulfamoyl)-butyryl] on the N-terminal alpha amino group
# Target: T1, human beta-Klotho
# Test: cell-based or functional assay
row,pERK-HEK293-Beta-klotho without HSA [EC50 (nM)] Median Value,Binder
1,75 nM,B1
2,12 nM,B2
3,3 nM,B3
4,100 nM,B4
5,2.1 nM,B5
6,1.8 nM,B6
7,1 nM,B7
8,3.8 nM,B8
9,3 nM,B9
10,2.2 nM,B10
11,2.5 nM,B11
12,2 nM,B12
13,6.6 nM,B13
14,11 nM,B14
15,2 nM,B15
